Measurements taken from patent US20090142346A1 (Takeda / Millennium, published 2009).

Assays:
[1] = molecular target: T1, cynomolgus monkey nectin-2 protein (cynomolgus monkey, UniProt Q92692 32-538 (human entry)); assay: FCM, CHO-K1 transient
T1 construct: transient on CHO-K1; also called maNectin-2
T1 chain: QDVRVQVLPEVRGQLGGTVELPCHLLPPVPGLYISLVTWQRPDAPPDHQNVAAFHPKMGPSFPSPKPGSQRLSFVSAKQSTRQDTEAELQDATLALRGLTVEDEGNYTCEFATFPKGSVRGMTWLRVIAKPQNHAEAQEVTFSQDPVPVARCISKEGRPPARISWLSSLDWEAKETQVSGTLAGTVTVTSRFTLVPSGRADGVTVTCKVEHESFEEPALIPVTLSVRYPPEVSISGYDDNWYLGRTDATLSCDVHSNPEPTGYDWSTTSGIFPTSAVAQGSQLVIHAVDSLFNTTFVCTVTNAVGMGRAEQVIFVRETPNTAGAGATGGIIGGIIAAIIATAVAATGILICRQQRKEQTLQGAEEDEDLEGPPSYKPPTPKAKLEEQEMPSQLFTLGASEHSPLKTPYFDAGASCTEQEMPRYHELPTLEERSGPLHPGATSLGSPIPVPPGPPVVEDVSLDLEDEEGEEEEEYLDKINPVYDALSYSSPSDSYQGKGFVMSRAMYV
Description: (§1) A ratio of the median value of fluorescence intensities of negative control plasmid pcDNA3.1(+)-transfected CHO-K1 cells to the median value of fluorescence intensities of each gene-transfected CHO-K1 cells was calculated for each antibody.
(§2) Then, after 200 μL of FCM buffer was added to each well and washed once by centrifugal operation, 50 μL each of Alexa488-labeled secondary antibody diluted in FCM buffer to 10 μg/mL was added thereto for suspension, and the mixture was then reacted on ice for an hour. As secondary antibodies, Alexa Fluor488 goat anti-human IgG (H+L) was used for the human antibodies and Alexa Fluor488 goat anti-rabbit IgG (H+L) (Invitrogen) was used for the rabbit antibody, respectively. Next, the cells were washed twice with FCM buffer and then resuspended in 250 μL of FCM buffer.

human nectin-2δ protein = molecular target: T2, human nectin-2δ protein (human, UniProt Q92692 32-538); assay: FCM, CHO-K1 transient
T2 construct: full length, stably on CHO-K1 (43-2) or transiently on CHO-K1 from pEE12.4-Nectin-2δ
T2 sequence: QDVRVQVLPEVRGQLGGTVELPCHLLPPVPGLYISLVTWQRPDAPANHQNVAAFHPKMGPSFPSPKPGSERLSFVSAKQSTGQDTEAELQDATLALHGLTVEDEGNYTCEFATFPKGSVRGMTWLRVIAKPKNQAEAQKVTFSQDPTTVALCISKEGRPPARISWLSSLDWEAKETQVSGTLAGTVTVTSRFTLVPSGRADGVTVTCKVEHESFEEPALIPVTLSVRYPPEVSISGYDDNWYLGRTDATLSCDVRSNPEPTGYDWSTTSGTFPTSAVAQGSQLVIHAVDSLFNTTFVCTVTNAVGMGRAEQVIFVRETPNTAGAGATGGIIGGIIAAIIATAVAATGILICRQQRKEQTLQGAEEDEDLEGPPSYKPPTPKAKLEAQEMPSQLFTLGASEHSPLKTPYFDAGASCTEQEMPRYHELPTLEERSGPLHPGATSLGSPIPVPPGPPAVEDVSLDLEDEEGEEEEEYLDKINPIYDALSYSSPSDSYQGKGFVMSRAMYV
Description: as §1, §2

[2] = molecular target: T3, nectin-2 Ig2 domain-deficient protein (human, UniProt Q92692 32-538); assay: FCM
T3 construct: also called delta-Ig2; Nectin-2ΔIg2
T3 sequence: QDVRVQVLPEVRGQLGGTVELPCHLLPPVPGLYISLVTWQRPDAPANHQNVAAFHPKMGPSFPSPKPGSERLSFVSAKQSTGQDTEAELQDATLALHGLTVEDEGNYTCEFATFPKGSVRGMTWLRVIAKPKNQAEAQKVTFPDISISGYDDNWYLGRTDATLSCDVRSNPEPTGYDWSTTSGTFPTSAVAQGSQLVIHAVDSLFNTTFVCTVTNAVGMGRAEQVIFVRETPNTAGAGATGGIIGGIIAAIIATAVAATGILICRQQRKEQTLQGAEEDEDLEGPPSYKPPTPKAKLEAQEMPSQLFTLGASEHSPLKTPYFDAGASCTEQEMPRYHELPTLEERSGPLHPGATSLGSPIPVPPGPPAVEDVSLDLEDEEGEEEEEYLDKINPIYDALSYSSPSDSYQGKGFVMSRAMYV
Description: After 200 μL of FCM buffer was added to each well and washed once by centrifugal operation, 50 μL each of Alexa488-labeled secondary antibody diluted in FCM buffer to 10 μg/mL was added to and mixed therewith, and the mixture was then reacted on ice for an hour. The Alexa488-labeled secondary antibody used was Alexa Fluor488 goat anti-human IgG (H+L) for the human antibodies and Alexa Fluor488 goat anti-rabbit IgG (H+L) (Invitrogen) for the rabbit antibody. The cells in each well were washed twice with FCM buffer and then resuspended in 250 μL of FCM buffer. Using the flow cytometer MPL500 (BECKMAN COULTER), the fluorescence intensity of stained cells was measured to determine the ratio of the median value of fluorescence intensities of the respective antibodies in the primary antibody group to the median value of fluorescence intensities in the negative control group.

human nectin-2δ H128R = molecular target: T4, human nectin-2δ H128R (human, UniProt Q92692 32-538); assay: FCM, CHO-K1 transient
T4 construct: transient on CHO-K1
T4 sequence: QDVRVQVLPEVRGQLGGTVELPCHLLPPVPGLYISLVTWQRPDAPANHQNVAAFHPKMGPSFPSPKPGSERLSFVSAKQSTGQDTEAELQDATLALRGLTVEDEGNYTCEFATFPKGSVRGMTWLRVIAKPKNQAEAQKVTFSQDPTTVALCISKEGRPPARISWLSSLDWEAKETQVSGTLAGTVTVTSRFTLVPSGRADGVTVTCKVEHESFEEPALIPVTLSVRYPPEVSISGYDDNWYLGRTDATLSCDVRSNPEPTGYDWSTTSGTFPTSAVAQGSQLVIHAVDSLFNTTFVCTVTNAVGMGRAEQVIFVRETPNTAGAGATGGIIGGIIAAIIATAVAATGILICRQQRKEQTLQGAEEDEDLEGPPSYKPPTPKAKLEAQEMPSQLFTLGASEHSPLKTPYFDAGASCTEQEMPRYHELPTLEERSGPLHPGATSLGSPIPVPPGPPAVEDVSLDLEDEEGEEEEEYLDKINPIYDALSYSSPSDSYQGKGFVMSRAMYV
Description: (§3) After these cells were further washed twice with FCM buffer and then resuspended in 250 μL of FCM buffer, fluorescence intensity of the stained cells was measured by the flow cytometer MPL500 (BECKMAN COULTER). A ratio of the median value of fluorescence intensities of negative control plasmid pcDNA3.1(+)-transfected CHO-K1 cells to the median value of fluorescence intensities of each gene-transfected CHO-K1 cells was calculated for each antibody.
(§4) Then, after 200 μL of FCM buffer was added to each well and washed once by centrifugal operation, 50 μL of Alexa Fluor488 goat anti-human IgG (H+L) diluted in FCM buffer to 10 μg/mL was added thereto for suspension, and the mixture was then reacted on ice for an hour. Next, the cells were washed twice with FCM buffer and resuspended in 250 μL of FCM buffer.

[3] = molecular target: T5, human nectin-2δ AN77-78PD (human, UniProt Q92692 32-538); assay: FCM, CHO-K1 transient
T5 construct: transient on CHO-K1
T5 sequence: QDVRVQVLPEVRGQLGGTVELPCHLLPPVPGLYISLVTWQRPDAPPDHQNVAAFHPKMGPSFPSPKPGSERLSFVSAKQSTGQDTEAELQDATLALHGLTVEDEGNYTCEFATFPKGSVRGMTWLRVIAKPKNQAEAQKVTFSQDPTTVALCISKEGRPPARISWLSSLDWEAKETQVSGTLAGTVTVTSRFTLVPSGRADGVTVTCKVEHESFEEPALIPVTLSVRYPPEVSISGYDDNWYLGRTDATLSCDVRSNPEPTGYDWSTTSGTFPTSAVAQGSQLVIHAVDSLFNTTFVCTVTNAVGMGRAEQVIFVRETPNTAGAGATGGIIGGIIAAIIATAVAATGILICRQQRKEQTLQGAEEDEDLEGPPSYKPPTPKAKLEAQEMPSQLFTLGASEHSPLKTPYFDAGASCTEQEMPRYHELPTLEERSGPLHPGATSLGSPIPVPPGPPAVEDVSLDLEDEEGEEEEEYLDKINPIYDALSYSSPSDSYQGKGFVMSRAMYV
Description: as §3, §4

human nectin-2δ G113R = molecular target: T6, human nectin-2δ G113R (human, UniProt Q92692 32-538); assay: FCM, CHO-K1 transient
T6 construct: transient on CHO-K1
T6 sequence: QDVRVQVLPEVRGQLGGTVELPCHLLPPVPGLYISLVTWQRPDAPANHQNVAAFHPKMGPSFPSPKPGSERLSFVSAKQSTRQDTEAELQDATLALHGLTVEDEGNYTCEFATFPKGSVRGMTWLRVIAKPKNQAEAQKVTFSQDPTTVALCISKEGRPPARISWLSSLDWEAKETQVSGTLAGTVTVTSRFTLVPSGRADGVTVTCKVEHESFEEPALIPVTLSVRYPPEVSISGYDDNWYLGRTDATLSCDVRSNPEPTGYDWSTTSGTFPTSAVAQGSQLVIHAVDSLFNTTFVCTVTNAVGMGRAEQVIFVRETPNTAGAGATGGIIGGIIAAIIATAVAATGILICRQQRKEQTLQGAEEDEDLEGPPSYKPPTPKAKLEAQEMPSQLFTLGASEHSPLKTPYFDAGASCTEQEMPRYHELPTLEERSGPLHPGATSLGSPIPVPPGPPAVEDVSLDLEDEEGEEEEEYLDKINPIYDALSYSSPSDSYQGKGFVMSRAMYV
Description: as §3, §4

- median fluorescence ratio [1]: 14.8 ratio
- median fluorescence ratio (human nectin-2δ protein): 43 ratio
- median fluorescence ratio (human nectin-2δ H128R): 51.5 ratio
- median fluorescence ratio [3]: 44.2 ratio
- median fluorescence ratio (human nectin-2δ G113R): 38.7 ratio
B1: Nec1-554-1 (antibody, human IgG1, V domains shown)
VH: EVQLVESGGGLVKPGGSLRLSCAASGFTFSSYNMNWVRQAPGKGLEWVSSISSSSSYIYYADSVKGRFTISRDNAKNSLYLQMNSLRAEDTAVYYCARDYYGSGTYYLFDYWGQGTLVTVSS
VL: EIVLTQSPDFQSVTPKEKVTITCRASQSIGSSLHWYQQKPDQSPKLLIKYASQSFSGVPSRFSGSGSGTDFTLTINSLEAEDAAAYYCHQSRSLPITFGQGTRLEIK
notes: human IgG1/k; also called Nec1-554-1 SP3
- binding result [2]: no binding (tested: ratio below 2 = no reactivity)
